Tests used:
[1] = target: Jak2 (UniProt O60674); assay: phosphorylation enrichment, bacterial display (enrichment ratio); higher = better substrate or ligand; peptides without Tyr show the background
[2] = target: Hck (UniProt P08631); assay: as above
[3] = target: FGFR3 (UniProt P22607); assay: as above
[4] = target: Fes (UniProt P07332); assay: as above
[5] = system: c-Abl (mouse); assay: as above
[6] = target: EPHB2 (UniProt P29323); assay: as above
[7] = system: Fer (mouse); assay: as above
[8] = system: AncSZ; assay: as above
[9] = target: EPHB1 (UniProt P54762); assay: as above
[10] = target: FGFR1 (UniProt P11362); assay: as above
[11] = system: c-Src; assay: as above
[12] = target: Fyn (UniProt P06241); assay: as above
[13] = target: MERTK (UniProt Q12866); assay: as above
[14] = target: c-Src SH2; assay: SH2 binding enrichment of the phosphorylated peptide, bacterial display (enrichment ratio); higher = better substrate or ligand; peptides without Tyr show the background
[15] = target: Grb2 SH2 (UniProt P62993); assay: as above
[16] = target: SHP2-C SH2; assay: as above
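Wherever SH2 binding enrichment of the phosphorylated peptide, bacterial display is given: peptide library displayed on the E. coli surface as eCPX fusions, selected cells deep-sequenced, score is each peptide's frequency after selection divided by its frequency in the input.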
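Wherever phosphorylation enrichment, bacterial display is given: 11-residue human phosphosite peptides and single-mutation variants displayed on the E. coli surface, counted by deep sequencing, each peptide's frequency after selection divided by its frequency in the unselected input library; frequency after pTyr selection over input frequency; kinase dosed for 20-30% of maximal phosphorylation in three min.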

Fes, sequence (P07332 whole entry, looked up): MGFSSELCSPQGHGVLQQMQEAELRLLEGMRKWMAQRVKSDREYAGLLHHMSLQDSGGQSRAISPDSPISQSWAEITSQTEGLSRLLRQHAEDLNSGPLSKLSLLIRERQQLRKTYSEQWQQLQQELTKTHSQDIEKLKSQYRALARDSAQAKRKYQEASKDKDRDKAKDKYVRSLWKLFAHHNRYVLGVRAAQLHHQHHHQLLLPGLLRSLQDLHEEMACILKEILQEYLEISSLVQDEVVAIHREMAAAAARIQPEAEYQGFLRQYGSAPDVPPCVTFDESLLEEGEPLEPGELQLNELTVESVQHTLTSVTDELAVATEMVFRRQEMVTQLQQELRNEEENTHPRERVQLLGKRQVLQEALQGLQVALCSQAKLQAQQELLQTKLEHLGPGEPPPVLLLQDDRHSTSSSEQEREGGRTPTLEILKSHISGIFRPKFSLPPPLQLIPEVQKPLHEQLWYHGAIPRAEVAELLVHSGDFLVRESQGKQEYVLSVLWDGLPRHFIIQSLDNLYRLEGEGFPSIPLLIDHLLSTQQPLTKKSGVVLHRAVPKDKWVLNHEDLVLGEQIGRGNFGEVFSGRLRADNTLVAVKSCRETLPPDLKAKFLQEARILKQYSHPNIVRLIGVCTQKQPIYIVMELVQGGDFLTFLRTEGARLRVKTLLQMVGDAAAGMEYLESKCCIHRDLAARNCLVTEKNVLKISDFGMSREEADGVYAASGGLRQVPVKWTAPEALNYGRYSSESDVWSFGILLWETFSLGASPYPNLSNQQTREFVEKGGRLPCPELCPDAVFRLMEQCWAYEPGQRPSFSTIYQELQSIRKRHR
FGFR3, sequence (P22607 whole entry, looked up): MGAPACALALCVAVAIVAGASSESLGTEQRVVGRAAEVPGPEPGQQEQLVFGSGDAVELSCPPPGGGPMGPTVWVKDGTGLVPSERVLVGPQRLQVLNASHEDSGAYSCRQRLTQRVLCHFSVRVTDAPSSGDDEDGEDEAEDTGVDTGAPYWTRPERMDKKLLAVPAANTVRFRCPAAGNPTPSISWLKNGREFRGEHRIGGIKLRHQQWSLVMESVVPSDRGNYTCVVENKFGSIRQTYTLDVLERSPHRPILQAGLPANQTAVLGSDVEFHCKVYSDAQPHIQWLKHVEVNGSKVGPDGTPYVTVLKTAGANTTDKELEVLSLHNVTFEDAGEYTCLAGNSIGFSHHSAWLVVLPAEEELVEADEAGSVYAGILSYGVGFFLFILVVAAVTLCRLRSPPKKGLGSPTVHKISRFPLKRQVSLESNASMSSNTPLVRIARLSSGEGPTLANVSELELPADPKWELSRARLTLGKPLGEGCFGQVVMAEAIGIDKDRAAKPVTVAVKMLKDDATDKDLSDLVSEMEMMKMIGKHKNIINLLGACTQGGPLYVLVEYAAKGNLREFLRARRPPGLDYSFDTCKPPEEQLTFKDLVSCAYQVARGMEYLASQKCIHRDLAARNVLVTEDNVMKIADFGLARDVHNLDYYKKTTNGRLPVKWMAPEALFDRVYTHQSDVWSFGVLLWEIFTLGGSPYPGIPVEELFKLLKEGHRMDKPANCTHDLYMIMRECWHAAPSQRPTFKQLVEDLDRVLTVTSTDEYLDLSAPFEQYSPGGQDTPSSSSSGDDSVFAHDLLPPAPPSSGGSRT
FGFR1, sequence (P11362 whole entry, looked up): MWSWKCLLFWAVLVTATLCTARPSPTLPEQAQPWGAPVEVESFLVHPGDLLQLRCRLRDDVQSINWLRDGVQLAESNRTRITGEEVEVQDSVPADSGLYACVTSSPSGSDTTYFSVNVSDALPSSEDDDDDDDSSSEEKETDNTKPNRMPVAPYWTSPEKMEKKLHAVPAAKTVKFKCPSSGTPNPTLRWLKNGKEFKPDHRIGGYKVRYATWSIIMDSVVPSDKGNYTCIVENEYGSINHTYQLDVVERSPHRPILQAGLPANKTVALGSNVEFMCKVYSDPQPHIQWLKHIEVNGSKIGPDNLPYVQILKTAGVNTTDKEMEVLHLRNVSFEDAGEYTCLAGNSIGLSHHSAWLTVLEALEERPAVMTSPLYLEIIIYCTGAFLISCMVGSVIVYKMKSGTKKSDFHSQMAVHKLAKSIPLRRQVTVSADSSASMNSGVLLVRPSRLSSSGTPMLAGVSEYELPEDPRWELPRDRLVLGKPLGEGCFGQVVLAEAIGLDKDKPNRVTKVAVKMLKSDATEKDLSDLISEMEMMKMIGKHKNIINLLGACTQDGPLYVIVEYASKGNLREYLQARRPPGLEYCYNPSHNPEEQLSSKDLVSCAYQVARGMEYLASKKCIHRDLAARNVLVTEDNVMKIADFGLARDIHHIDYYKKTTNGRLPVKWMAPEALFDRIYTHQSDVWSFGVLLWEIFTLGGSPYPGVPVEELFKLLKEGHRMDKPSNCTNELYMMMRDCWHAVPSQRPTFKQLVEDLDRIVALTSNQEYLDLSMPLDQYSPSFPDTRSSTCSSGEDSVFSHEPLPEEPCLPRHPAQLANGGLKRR
EPHB1, sequence (P54762 whole entry, looked up): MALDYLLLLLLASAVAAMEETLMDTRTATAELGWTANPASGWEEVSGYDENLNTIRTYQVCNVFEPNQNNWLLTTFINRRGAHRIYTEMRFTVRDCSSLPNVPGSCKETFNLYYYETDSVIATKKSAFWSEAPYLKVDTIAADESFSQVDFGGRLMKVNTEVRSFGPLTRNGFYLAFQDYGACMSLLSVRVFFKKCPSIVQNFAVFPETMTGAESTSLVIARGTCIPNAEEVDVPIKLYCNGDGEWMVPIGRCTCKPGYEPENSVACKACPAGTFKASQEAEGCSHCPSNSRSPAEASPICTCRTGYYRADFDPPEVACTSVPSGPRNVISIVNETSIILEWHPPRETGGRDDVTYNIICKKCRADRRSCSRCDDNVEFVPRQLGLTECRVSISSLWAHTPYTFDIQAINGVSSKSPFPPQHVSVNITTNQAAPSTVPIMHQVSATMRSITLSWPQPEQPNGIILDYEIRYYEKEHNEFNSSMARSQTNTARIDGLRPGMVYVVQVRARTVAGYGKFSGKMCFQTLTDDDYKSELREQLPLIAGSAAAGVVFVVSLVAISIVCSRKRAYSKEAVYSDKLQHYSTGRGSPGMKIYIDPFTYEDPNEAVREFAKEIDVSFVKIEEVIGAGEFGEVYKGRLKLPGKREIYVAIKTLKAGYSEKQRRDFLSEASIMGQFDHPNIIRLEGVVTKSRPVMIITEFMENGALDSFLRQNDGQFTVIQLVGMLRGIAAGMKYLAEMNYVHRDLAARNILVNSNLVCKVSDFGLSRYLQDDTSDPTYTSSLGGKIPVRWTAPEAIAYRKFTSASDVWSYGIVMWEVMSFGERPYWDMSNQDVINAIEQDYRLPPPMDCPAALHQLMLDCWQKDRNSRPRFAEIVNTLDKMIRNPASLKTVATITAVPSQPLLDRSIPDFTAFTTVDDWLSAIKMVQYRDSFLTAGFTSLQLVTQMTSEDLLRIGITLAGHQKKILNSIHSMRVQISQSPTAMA
Fyn, sequence (P06241 whole entry, looked up): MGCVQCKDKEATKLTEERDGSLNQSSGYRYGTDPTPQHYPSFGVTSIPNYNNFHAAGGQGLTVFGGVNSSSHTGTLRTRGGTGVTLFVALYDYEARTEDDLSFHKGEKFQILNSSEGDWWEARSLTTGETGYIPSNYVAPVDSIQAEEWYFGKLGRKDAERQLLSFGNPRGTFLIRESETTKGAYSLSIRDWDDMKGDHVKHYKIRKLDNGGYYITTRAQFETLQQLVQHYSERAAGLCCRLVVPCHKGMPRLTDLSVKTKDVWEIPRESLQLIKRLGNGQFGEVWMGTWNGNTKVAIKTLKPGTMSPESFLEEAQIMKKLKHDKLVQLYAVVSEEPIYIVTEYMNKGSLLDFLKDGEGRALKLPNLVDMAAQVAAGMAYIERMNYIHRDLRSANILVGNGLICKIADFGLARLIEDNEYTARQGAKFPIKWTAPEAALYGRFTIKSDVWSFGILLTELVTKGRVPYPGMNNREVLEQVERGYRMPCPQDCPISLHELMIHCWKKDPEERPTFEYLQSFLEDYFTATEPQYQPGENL
MERTK, sequence (Q12866 whole entry, looked up): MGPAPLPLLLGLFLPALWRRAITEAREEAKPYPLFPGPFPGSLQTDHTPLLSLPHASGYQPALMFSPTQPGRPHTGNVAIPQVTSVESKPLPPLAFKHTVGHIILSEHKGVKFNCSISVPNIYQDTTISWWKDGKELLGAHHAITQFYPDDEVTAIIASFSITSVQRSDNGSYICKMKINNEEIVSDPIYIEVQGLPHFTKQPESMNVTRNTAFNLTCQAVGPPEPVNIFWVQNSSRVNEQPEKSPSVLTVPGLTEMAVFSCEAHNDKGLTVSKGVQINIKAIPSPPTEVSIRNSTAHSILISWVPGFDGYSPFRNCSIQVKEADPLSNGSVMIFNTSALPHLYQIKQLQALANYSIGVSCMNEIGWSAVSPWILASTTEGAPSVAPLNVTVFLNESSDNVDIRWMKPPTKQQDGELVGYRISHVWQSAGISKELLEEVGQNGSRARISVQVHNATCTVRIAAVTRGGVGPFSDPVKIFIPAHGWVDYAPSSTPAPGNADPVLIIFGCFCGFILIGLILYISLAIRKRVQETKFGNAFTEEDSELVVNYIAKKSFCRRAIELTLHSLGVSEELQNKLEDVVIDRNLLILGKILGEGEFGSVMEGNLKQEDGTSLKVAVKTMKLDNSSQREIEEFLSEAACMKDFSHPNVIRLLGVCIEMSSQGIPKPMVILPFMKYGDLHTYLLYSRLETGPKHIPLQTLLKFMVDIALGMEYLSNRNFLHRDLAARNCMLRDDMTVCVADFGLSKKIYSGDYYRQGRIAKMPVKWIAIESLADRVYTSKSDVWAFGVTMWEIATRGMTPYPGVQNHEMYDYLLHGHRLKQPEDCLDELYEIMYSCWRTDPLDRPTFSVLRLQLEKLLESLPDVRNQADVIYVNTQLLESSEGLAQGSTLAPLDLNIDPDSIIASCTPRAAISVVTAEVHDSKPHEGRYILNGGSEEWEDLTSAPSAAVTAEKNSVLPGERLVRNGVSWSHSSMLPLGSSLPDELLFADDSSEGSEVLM

Sequence	phosphorylation enrichment [1]	phosphorylation enrichment [2]	phosphorylation enrichment [3]	phosphorylation enrichment [4]	phosphorylation enrichment [5]	phosphorylation enrichment [6]	phosphorylation enrichment [7]	phosphorylation enrichment [8]	phosphorylation enrichment [9]	phosphorylation enrichment [10]	phosphorylation enrichment [11]	phosphorylation enrichment [12]	phosphorylation enrichment [13]	SH2 binding enrichment [14]	SH2 binding enrichment [15]	SH2 binding enrichment [16]
FMMMRYSQNIR [SDAD1_Y656_V660I]	0.955	0.53	0.795	1.3	0.61	1.23	0.509	1.17	0.77	0.663	0.397	0.513	0.414	0.883	1.35	1.36
FNSLLYQVPTS [CALCOCO2_Y358_P357L]	2.1	6.55	1.32	1.06	17.8	18.8	15	2.77	12	1.17	3.65	2.58	12.5	0.538	0.818	0.91
FPKAHYHWLVL [APTX_Y214_R213H_YF]	0.864	0.444	1.87	1.29	0.716	0.491	0.645	0.819	0.448	2.69	0.396	0.447	0.619	1.54	1.86	1.7
FQCKHYACIRQ [TIMP3_Y182_S179C_YF]	0.508	0.445	0.501	0.72	0.634	0.35	0.379	0.542	0.378	0.341	0.393	0.365	0.414	2.38	1.74	3.79
FQKDVYDIPPS [NEDD9_Y177_YF]	0.629	2.69	0.559	0.681	0.662	2.01	0.502	1.01	0.681	0.384	2.62	2.59	7.04	0.466	0.871	0.745
FRAVKYLQMVG [AVPR2_Y117_C112Y_YF]	0.902	0.319	0.518	1.26	0.629	0.393	0.366	0.889	0.509	0.387	0.496	0.397	0.366	0.552	0.96	3.15
FRKNTYNVKST [SYNE2_Y575_I574T_YF]	0.402	0.402	0.366	0.578	0.609	0.333	0.375	0.466	0.425	0.352	0.437	0.426	0.473	0.679	1.27	0.976
FRVDCYKNFVA [FHL1_Y213_C209R_YF]	1.11	0.511	0.956	1.49	0.979	0.68	0.58	1.23	0.783	0.542	0.502	0.566	0.496	0.656	0.993	0.703
FSEVRYVKEPF [HIPK4_Y170_YF]	0.584	0.483	0.884	0.831	0.676	0.527	0.505	0.748	0.403	0.586	0.44	0.513	0.414	0.487	1.03	0.783
FSKTQYNQVPR [CXADR_Y318_S323R_YF]	0.491	0.457	0.447	0.502	0.6	0.361	0.367	0.482	0.409	0.312	0.484	0.437	0.428	0.64	1.16	0.899
FSMGCYEISLE [HMGCL_Y198_G203E_YF]	1.31	0.758	0.973	1.53	1.2	0.751	1.14	2.14	0.913	0.541	1.51	0.898	0.623	0.347	0.879	0.7
FSQQTYCRVSN [ABCD1_Y180_Y181C]	0.764	1.34	0.644	0.981	0.76	2.1	0.558	0.875	3.39	0.538	0.881	0.557	0.745	1.02	0.817	0.688
FSQQTYYRVSN [ABCD1_Y180]	6.78	3.2	4.51	0.756	0.72	1.06	0.392	0.831	1.83	6.2	3.18	1.18	2.85	0.82	0.86	0.672
FTFTSYFMHWV [IGHV1-46_Y51_YF]	2.37	0.451	0.765	1.13	1.05	0.648	0.495	1.16	0.437	0.5	0.608	0.474	0.391	1.03	1.71	1.19
FVFSFYHAFSG [ACTN4_Y265_S262F_YF]	1.25	0.525	0.693	1.1	0.994	0.812	0.455	0.963	0.808	0.492	0.714	0.505	1.6	1.04	1.55	1.31
FVGGFYGGCNE [CTSC_Y352_YF]	1.27	1.02	0.918	1.42	0.86	0.752	0.941	1.22	0.696	0.632	0.784	0.666	0.516	0.589	0.895	0.563
FVSIVYNDSGE [TSC2_Y1650]	0.942	0.611	0.725	0.993	0.647	0.702	0.52	0.951	0.509	0.559	0.516	0.596	0.571	0.705	1.2	1.01
GADDSYYTARS [ZAP70_Y492]	1	0.737	0.652	1.05	0.938	0.517	0.482	1	0.488	0.551	0.742	0.594	0.43	0.556	0.816	0.447
GARGRYVMGGP [TNK1_Y277]	0.457	0.379	0.419	0.555	0.376	0.389	0.405	0.7	0.504	0.481	0.421	0.332	0.546	0.435	0.512	0.548
GAVDTYCRHNY [HLA-DRB1_Y107_A102G]	0.708	0.475	0.594	0.763	0.755	0.418	0.374	0.724	0.475	0.531	0.575	0.443	0.443	0.518	0.827	0.721
GCRSKSVGLWG [KCNQ1_Y184_Y184S]	0.539	0.423	0.382	0.62	0.477	0.488	0.365	0.51	0.38	0.429	0.436	0.344	0.389	0.531	0.875	0.899
GCRSKYVGLWR [KCNQ1_Y184_G189R]	0.395	0.36	0.591	0.519	0.409	0.325	0.42	0.638	0.411	0.382	0.365	0.401	0.394	0.802	1.18	0.744
GDAMLYYPSVS [GPR143_Y177_A173D]	3.08	2.77	4.78	0.736	1.36	0.702	1.27	0.95	0.763	5.91	2.22	0.957	4.84	0.773	0.825	0.759
GDPTEYFSTAI [IGSF22_Y501_YF]	1.15	0.498	0.936	1.08	0.745	0.645	0.433	1.54	0.634	0.7	0.502	0.525	0.439	0.522	0.788	0.583
GDPTEYYITAI [IGSF22_Y501_S503I]	1.38	0.562	2.6	1.1	0.809	0.647	0.611	1.95	0.594	2.91	0.703	0.598	0.399	0.374	0.647	0.478
GDPTEYYSTAI [IGSF22_Y501]	0.954	0.809	1.74	0.873	0.636	0.555	0.738	1.77	0.598	2.04	0.87	0.599	0.497	0.619	0.959	0.734
GDSVQYNRTTD [MLPH_Y454_P451S]	0.728	0.498	0.498	0.999	0.548	0.38	0.457	0.612	0.486	0.487	0.422	0.469	0.419	0.481	0.718	0.704
GEDEPYAEPYA [APBA1_Y183_S184A]	1.33	0.544	0.799	1.53	0.915	0.694	0.525	1.59	0.685	0.608	0.639	0.609	0.636	0.821	1.1	0.885
GEEIKYMLWLL [OTC_Y55_S60L]	0.912	0.663	0.975	1.55	0.77	0.554	1.88	1	0.722	0.752	0.544	0.5	1.58	0.716	1.16	1.01

From the supplement of paper PMC10065799, “High-throughput profiling of sequence recognition by tyrosine kinases and SH2 domains using bacterial peptide display” (eLife, 2023)
